# Test results: patent US20260151494A1 (ARO BIOTHERAPEUTICS, published 2026)
# B1: CD71-binding FN3 domain of SEQ ID NO: 219 (designed binder)
# chain: MSLPAPKNLVVSRVTEDSARLSWTAPDAAFDSFAIMYGERGNPGEAIVLTVPGSERSYDLTGLKPGTEYAVWIYGVKGGNYSYPLSAIFTT
# notes: the tag is not included in the chain
# B2: CD71-binding FN3 domain of SEQ ID NO: 225 (designed binder)
# chain: MSLPAPKNLVVSRVTEDSARLSWTAPDAAFDSFEIGYFENLYLGEAIVLTVPGSERSYDLTGLKPGTEYWVQIGGVKGGNWSAPLSAIFTT
# B3: CD71-binding FN3 domain of SEQ ID NO: 230 (designed binder)
# chain: MSLPAPKNLIVSRVTEDSARLSWTAPDAAFDSLEIGYFENLYLGEAIVLTVPGSERSYDLTGLKPGTEYWVQIGGVKGGNWSAPLSAIFTT
# B4: CD71-binding FN3 domain of SEQ ID NO: 220 (designed binder)
# chain: MSLPAPKNLVVSRVTEDSARLSWTAPDAAFDSFEIAYWEQSYTGEAIVLTVPGSERSYDLTGLKPGTEYWVQIGGVKGGNWSAPLSAIFTT
# B5: CD71-binding FN3 domain of SEQ ID NO: 223 (designed binder)
# chain: MSLPAPKNLVVSRVTEDSARLSWTAPDAAFDSFEIAYFERTWFGEAIVLTVPGSERSYDLTGLKPGTEYWVAIGGVKGGLWSLPLSVIFTT
# B6: CD71-binding FN3 domain of SEQ ID NO: 224 (designed binder)
# chain: MSLPAPKNLVVSRVTEDSARLSWTAPDAAFDSFEIGYWENAYKGEAIVLTVPGSERSYDLTGLKPGTEYVVFIGGVKGGGWSGPLSAIFTT
# B7: CD71-binding FN3 domain of SEQ ID NO: 228 (designed binder)
# chain: MSLPAPKNLVVSRVTEDSARLSWTAPDAAFDSFEIGYWENAYKGEAIVLTVPGSERSYDLTGLKPGTEYVVFIGGVKGGVWSKPLSVIFTT
# B8: CD71-binding FN3 domain of SEQ ID NO: 232 (designed binder)
# chain: MSLPAPKNLVVSRVTEDSARLSWTAPDAAFDSFEISYWEHTFNGEAIILFVPGSERSYDLTGLKPGTEYVVFIGGVKGGVWSVPLSAIFTT
# B9: CD71-binding FN3 domain of SEQ ID NO: 226 (designed binder)
# chain: MSLPAPKNLVISRVTEDSARLSWTAPDAAFDSFEIGYFENLYLGEAIVLTVPGSERSYDLTGLKPGTEYWVAIGGVKGGLWSLPLSAIFTT
# B10: CD71-binding FN3 domain of SEQ ID NO: 233 (designed binder)
# chain: MSLPAPKNLVVSRVTEDSARLSWTAPDAAFDSFFIGYLEPQPPGEAIHLSVPGSERSYDLTGLKPGTEYWVQIGGVKGGNWSAPLSAIFTT
# B11: CD71-binding FN3 domain of SEQ ID NO: 227 (designed binder)
# chain: MSLPAPKNLVVSRVTEDSARLSWTAPDAAFDSFEIAYAELSTGEAIVLTVPGSERSYDLTGLKPGTEYYVHIGGVKGGSWSIPLSAIFTT
# B12: CD71-binding FN3 domain of SEQ ID NO: 264 conjugated to KRAS2 siRNA (designed binder)
# chain: MSLPAPKNLVVSRVTEDSARLSWTAPDAAFDSFFIGYLEPQPPGEAIALYVPGSERSYDLTGLKPGTEYNVTIQGVKGGFPSEPLVVHFTT
# modifications: conjugated to KRAS2 tool siRNA; site and linker not stated
# B13: CD71-binding FN3 domain of SEQ ID NO: 343 conjugated to KRAS2 siRNA (designed binder)
# chain: MSLPAPKNLVVSRVTEDSARLSWTAPDAAFDSFFIGYLEPQPPGEAIALWVPGSERSYDLTGLKPGTEYNVTIQGVKGGFPSEPLVATFTT
# modifications: conjugated to KRAS2 tool siRNA; site and linker not stated
# B14: CD71-binding FN3 domain of SEQ ID NO: 331 conjugated to KRAS2 siRNA (designed binder)
# chain: MSLPAPKNLVVSRVTEDSARLSWTAPDAAFDSFFIGYLEPQPPGEAIHLYVPGSERSYDLTGLKPGTEYNVTIQGVKVGFPSEPLIANFTT
# modifications: conjugated to KRAS2 tool siRNA; site and linker not stated
# B15: CD71-binding FN3 domain of SEQ ID NO: 333 conjugated to KRAS2 siRNA (designed binder)
# chain: MSLPAPENLVVSRVTEDSARLSWTAPDAAFDSFFIGYLEPQPPGEAIALYVPGSERSYDLTGLKPGTEYNVTIQGVKGGFPSLPLVATFTT
# modifications: conjugated to KRAS2 tool siRNA; site and linker not stated
# B16: CD71-binding FN3 domain of SEQ ID NO: 335 conjugated to KRAS2 siRNA (designed binder)
# chain: MSLPAPKNLVVSRVTEDSARLSWTAPDAAFDSFFIGYLEPQPPGEAIDLYVPGSERSYDLTGLKPGTEYNVTIQGVKGGFPSLPLVATFTT
# modifications: conjugated to KRAS2 tool siRNA; site and linker not stated
# B17: CD71-binding FN3 domain of SEQ ID NO: 341 conjugated to KRAS2 siRNA (designed binder)
# chain: MSLPAPKNLVVSRVTEDSARLSWTAPDAAFDSFFIGYLEPQPPGEAIELYVPGSERSYDLTGLKPGTEYNVTIQGVKGGFPSLPLVAIFTT
# modifications: conjugated to KRAS2 tool siRNA; site and linker not stated
# B18: CD71-binding FN3 domain of SEQ ID NO: 974 conjugated to KRAS2 siRNA (designed binder)
# chain: MSLPAPKNLVVSRVTEDSARLSWTAPDAAFDSFFIGYLEPQPPGEAIALYVPGSERSYDLTGLKPGTEYNVTIQGVKGGFPSLPLVATFTT
# modifications: conjugated to KRAS2 tool siRNA; site and linker not stated
# B19: CD71-binding FN3 domain of SEQ ID NO: 290 conjugated to KRAS2 siRNA (designed binder)
# chain: MSLPAPKNLVVSRVTEDSARLSWTAPDAAFDSFFIGYLEPQPPGEAIHLYVPGSERSYDLTGLKPGTEYNVTIQGVKGGFPSEPLVATFTT
# modifications: conjugated to KRAS2 tool siRNA; site and linker not stated
# B20: CD71-binding FN3 domain of SEQ ID NO: 295 conjugated to KRAS2 siRNA (designed binder)
# chain: MSLPAPKNLVVSRVTEDSARLSWTAPDAAFDSFFIGYLEPQPPGEAIDLYVPGSERSYDLTGLKPGTEYNVTIQGVKGGFPSEPLVATFTT
# modifications: conjugated to KRAS2 tool siRNA; site and linker not stated
# B21: CD71-binding FN3 domain of SEQ ID NO: 972 conjugated to KRAS2 siRNA (designed binder)
# chain: MSLPAPKNLVVSRVTEDSARLSWTAPDAAFDSFFIGYLEPQPPGEAIALYVPGSERSYDLTGLKPGTEYNVTIQGAKGGFPSEPLVVHFTT
# modifications: conjugated to KRAS2 tool siRNA; site and linker not stated
# B22: CD71-binding FN3 domain of SEQ ID NO: 222 (designed binder)
# chain: MSLPAPKNLVVSRVTEDSARLSWTAPDAAFDSFFIGYLEPQPPGEAITLYVPGSERSYDLTGLKPGTEYNVTIQGVKGGFPSGPLIASFTT
# B23: CD71-binding FN3 domain of SEQ ID NO: 293 conjugated to KRAS2 siRNA (designed binder)
# chain: MSLPAPKNLVVSRVTEDSARLSWTAPDAAFDSFFIGYLEPQPPGEAIDLYVPGSERSYDLTGLKPGTEYNVTIQGVKGGFPSHPLVATFTT
# modifications: conjugated to KRAS2 tool siRNA; site and linker not stated
# B24: CD71-binding FN3 domain of SEQ ID NO: 973 conjugated to KRAS2 siRNA (designed binder)
# chain: MSLPAPKNLVVSRVTEDSARLSWTAPDAAFDSFFIGYLEPQPPGEAIHLYVPGSERSYDLTGLKPGTEYNGTIQGVKVGFPSEPLIANFTT
# modifications: conjugated to KRAS2 tool siRNA; site and linker not stated
# B25: CD71-binding FN3 domain of SEQ ID NO: 270 conjugated to KRAS2 siRNA (designed binder)
# chain: MSLPAPKNLVVSRVTEDSARLSWTAPDAAFDSFFIGYLEPQPPGEAIHLYVPGSERSYDLTGLKPGTEYNVTIQGVKGGFPSEPLIANSTT
# modifications: conjugated to KRAS2 tool siRNA; site and linker not stated
# B26: CD71-binding FN3 domain of SEQ ID NO: 281 conjugated to KRAS2 siRNA (designed binder)
# chain: MSLPAPKNLVVSRVTEDSARLSWTAPDAAFDSFFIGYLEPQPPGEAIALYVPGSERSYDLTGLKPGTEYNVTIQGVKGGFPSEPLIANFTT
# modifications: conjugated to KRAS2 tool siRNA; site and linker not stated
# B27: CD71-binding FN3 domain of SEQ ID NO: 221 (designed binder)
# chain: MSLPAPKNLVVSRVTEDSARLSWTAPDAAFDSFFIGYLEPRPPGEAIHLYVPGSERSYDLTGLKPGTEYNITIQGVKGGFPSIPLIASFTT
# B28: CD71-binding FN3 domain of SEQ ID NO: 231 (designed binder)
# chain: MSLPAPKNLVVSRVTEDSARLSWTAPDAAFDSFFIGYLEPQPPGEAIHLFVPGSERSYDLTGLKPGTEYNVTIQGVKGGFPSEPLIANSTT
# B29: CD71-binding FN3 domain of SEQ ID NO: 229 (designed binder)
# chain: MSLPAPKNLVVSRVTEDSARLSWTAPDAAFDSFSIMYAEQKVNGEAIVLTVPGSERSYDLTGLKPGTEYLVLIWGVKGGGRSLPLSAIFTT
# Key:
# [1] = target: T1, apical domain of cynomolgus CD71 (cynomolgus, UniProt A0A2K5X958 189-383); test: primary ELISA, luminescence; further: test concentration or dose not given here
# T1 construct: domain: apical domain; also called Cyno apical domain
# T1 sequence (A0A2K5X958 entry or part of it): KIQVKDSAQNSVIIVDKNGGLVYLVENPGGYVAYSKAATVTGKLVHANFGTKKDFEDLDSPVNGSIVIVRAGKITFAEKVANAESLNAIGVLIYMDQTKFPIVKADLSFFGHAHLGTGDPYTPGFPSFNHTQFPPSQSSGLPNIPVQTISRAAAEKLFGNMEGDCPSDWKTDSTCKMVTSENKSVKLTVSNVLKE
# [2] = target: T2, human CD71 extracellular domain (human, UniProt P02786 89-760); test: primary ELISA, luminescence; further: test concentration or dose not given here
# T2 construct: also called hCD71; human CD71-ECD
# T2 sequence (P02786 89-760): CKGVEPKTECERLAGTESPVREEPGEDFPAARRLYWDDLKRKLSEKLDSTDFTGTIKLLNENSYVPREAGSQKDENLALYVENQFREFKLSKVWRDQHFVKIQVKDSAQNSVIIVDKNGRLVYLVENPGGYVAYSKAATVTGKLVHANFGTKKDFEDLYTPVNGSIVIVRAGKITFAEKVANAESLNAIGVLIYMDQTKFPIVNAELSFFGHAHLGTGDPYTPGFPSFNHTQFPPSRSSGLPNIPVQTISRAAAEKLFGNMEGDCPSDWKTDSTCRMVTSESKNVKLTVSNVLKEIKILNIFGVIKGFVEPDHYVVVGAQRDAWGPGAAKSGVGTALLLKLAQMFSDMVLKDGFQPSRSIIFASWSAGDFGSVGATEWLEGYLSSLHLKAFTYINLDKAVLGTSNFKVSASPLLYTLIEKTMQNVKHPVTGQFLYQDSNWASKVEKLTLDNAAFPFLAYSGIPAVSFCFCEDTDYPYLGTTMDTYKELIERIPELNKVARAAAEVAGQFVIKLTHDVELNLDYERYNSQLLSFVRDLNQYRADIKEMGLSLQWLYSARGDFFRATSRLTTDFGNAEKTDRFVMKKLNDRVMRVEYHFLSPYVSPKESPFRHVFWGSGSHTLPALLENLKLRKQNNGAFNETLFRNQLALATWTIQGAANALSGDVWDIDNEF
# [3] = target: T1, apical domain of cynomolgus CD71; test: primary ELISA, ratio of signal to HSA control
# [4] = target: T2, human CD71 extracellular domain; test: primary ELISA, ratio of signal to HSA control
# [5] = target: human CD71 on cells (SKBR3; SW620-rLuc-KRAS) (human, UniProt P02786 1-760); test: cell-based or functional assay
# Chain of human CD71 on cells (SKBR3; SW620-rLuc-KRAS) (P02786 whole entry, the tested form may be a part): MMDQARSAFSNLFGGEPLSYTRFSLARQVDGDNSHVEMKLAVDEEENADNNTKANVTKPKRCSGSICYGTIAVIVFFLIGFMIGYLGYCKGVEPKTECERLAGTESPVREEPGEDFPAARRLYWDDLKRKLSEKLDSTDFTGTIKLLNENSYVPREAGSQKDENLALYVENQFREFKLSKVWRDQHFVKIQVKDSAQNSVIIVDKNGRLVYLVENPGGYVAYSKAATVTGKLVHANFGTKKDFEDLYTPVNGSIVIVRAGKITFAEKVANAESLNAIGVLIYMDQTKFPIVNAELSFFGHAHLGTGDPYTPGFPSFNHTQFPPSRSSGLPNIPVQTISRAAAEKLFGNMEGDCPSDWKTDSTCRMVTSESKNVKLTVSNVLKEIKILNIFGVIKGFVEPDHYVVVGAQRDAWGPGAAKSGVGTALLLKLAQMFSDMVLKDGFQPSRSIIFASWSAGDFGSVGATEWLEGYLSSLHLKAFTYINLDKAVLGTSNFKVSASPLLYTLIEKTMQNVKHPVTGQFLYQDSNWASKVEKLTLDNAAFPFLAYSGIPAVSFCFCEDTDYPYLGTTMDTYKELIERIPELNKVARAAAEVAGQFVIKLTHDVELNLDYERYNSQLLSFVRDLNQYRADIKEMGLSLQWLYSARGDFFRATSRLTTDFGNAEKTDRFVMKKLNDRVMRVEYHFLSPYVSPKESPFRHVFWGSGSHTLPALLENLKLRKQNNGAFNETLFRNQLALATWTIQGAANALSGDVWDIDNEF
Binder,RLU [1] [RLU],RLU [2] [RLU],Cyno apical domain:HSA [3],hCD71:HSA [4],"LSA EC50 (luciferase reporter assay, SW620-rLuc-KRAS cells, 72 h) [5] [nM]"
B1,4.58e+06,3.01e+06,101,66,
B2,4.22e+06,2.43e+06,331,191,
B3,4.73e+06,2.54e+06,282,151,
B4,4.69e+06,2.43e+06,751,388,
B5,4.11e+06,2.25e+06,47,26,
B6,4.79e+06,3.1e+06,115,74,
B7,4.86e+06,2.66e+06,242,133,
B8,5.41e+06,3.58e+06,295,195,
B9,4.33e+06,3.1e+06,28,20,
B10,4.78e+06,2.69e+06,359,202,
B11,4.23e+06,2.62e+06,49,30,
B12,,,,,0.45
B13,,,,,0.64
B14,,,,,0.75
B15,,,,,0.58
B16,,,,,0.47
B17,,,,,0.67
B18,,,,,0.53
B19,,,,,0.57
B20,,,,,0.47
B21,,,,,0.49
B22,6.01e+06,5.78e+06,223,215,
B23,,,,,0.54
B24,,,,,0.48
B25,,,,,2.1
B26,,,,,0.39
B27,6.08e+06,5.75e+06,186,176,
B28,5.52e+06,4.93e+06,63,56,
B29,4.52e+06,3.42e+06,119,90,
